Measurements published in publication doi:10.1101/2023.07.03.547485 (bioRxiv, 2023).

Molecular target: T1, 6His-msfGFP-TEV-Mis18FL (S. pombe, UniProt Q9P802 1-194)
T1 sequence (looked up): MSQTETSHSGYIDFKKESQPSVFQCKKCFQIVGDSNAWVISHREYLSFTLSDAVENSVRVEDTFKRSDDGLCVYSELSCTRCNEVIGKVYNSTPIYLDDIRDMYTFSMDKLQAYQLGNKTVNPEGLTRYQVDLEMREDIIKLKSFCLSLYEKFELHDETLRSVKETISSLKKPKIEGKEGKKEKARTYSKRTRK
Test: pull-down

- binding result: binds
B1: 6His-MBP-Sad1(2-167) (domain or fragment, S. pombe, UniProt Q09825 2-167, looked up)
chain: FTNTPVGGKRERQNGAHPAWSTLGANSAQIHQNTADLASKMHKLRYTKIRSPPTRVSIESITPKQRFPAPNFEQAYHSNIRYEQEESDNEEFENVVKNGHEASTNVFYESDGDDEEFVNEEYENSIDEESDDEGYSLNEDTTATNASFRYPMNQRSTRKSQFYSSK
